{
  "source": "paper PMC8928221",
  "about": "“Structure and Function Insight of the α-Glucosidase QsGH13 From Qipengyuania seohaensis sp. SW-135” (Frontiers in Microbiology, 2022)",
  "key": {"QsGH13": {"target": "T1, QsGH13 (Qipengyuania seohaensis, UniProt A0A8X6EH34)", "T1 construct": "N-terminal His6-SUMO tag cut off with Ulp1; expressed in E. coli BL21(DE3) from pSMT3; dimer; primers encode N-terminus MSGKLP and C-terminus ILETDT (translated from primers)", "assay": "residual activity, p-nitrophenol release, absorbance […] nm", "assay_type": "biochemical", "details": "product tolerance test, 2 M glucose, substrate pNPαGlu, 20 mM Gly-NaOH pH 10.0, 45 °C"}, "[1]": {"target": "α-glucosidase QsGH13 from Qipengyuania seohaensis sp. SW-135 (Qipengyuania seohaensis sp. SW-135)", "assay": "crystal structure; QsGH13 at 10 mg/ml, hanging drop vapour diffusion at 4°C, 0.1 M Tris-HCl pH 8.5, 0.2 M NaCl, 20% PEG 3,350; space group P212121, two monomers per asymmetric unit"}, "purified protein": {"substrate": "O=[N+]([O-])c1ccc(O[C@H]2O[C@H](CO)[C@@H](O)[C@H](O)[C@H]2O)cc1", "assay": "purified protein", "details": "pH 10.0 (20 mM Gly-NaOH), 45 °C, 0.025-2.0 mM substrate"}},
  "data": [
    {"molecule": "OC[C@H]1OC(O)[C@H](O)[C@@H](O)[C@@H]1O", "note": "(stereo partly drawn) [glucose]", "values": [
      {"measurement": "% activity retained at 2 M", "setting": "QsGH13", "result": 30, "unit": "%"}
    ]},
    {"molecule": "α-glucosidase QsGH13 from Qipengyuania seohaensis sp. SW-135 (enzyme)", "values": [
      {"measurement": "stoichiometry N", "setting": "[1]", "result": 2}
    ]},
    {"molecule": "QsGH13 (Qipengyuania seohaensis) (protein) MSGKLPWWKGAVIYQIYPRSFMDSNGDGIGDLPGIAQRLPHIAELGADAIWISPFFKSPMKDFGYDVSDYCDVDPIFGTLEDFDAVIARSHELGLKVLIDQVYSHTSDDHEWFAESRSNRDNPKAEWYVWADAKPDGSPPSNWQSVFGGPAWTWDARRGQYYLHNFLSSQPQLNLHNREAQQAVLDVMRFWLERGVDGFRIDALNFAMHDPQLRDNPPAPPTDKQRTRPFDFQLKTYNQSHADIPAFIERIRALTDEFDGIFTVAEVGGDDAVREMKAFTEGETHLNSAYGFNFLYAEALTPQLVCSALAEWPEEPDLGWPSWAFENHDAPRALSRWCTPEDRQAFARLKTLLLMSLRGNAILYYGEELGLTQVDIPFDQLHDPEAIANWPLTLSRDGARTPMPWDDSECAGFGSTAPWLPVGDDNRPRSVAAQLGDANSLLKFTRQAIALRKANPALHHGHVVECNHDGDLLELVREAGGQRLRCRFNLGSKPVECDDCEGRTLLAINGAEPTALPPFAAIILETDT", "values": [
      {"measurement": "Km", "setting": "purified protein", "result": "295.2 ± 32.2", "unit": "µM"}
    ]}
  ]
}
